This is an account of results in paper PMC13185593.

In the data set the test system is HuR. Briefly: SPR. As to conditions: SPR: 25 mM Tris pH 7.5, 100 mM KCl, 7 mM b-mercaptoethanol, 10% glycerol, 25 C, UV crosslinking: 5 mM HEPES pH 7.6, 25 mM KCl, 2 mM MgCl2, 3.8% glycerol.

One may read the Kd as the constant that tells how readily two partners part at equilibrium. Low values mean tighter binding, high ones weaker binding. Turning to SARS-CoV-2 5'-UTR C241U, biotin (SPR), the Kd is 339 nM.

In turn, “SARS-CoV-2 5'-UTR G210U+C241U, biotin (SPR)” had a Kd of 72.9 nM.
